Test results reported in publication PMC7166090, “A bacteriophage mimic of the bacterial nucleoid-associated protein Fis” (Biochemical Journal, 2020).

Target: T1, His-NinH wt (Bacteriophage lambda (cI857 Sam7), UniProt P03771 1-68, A15T)
T1 sequence: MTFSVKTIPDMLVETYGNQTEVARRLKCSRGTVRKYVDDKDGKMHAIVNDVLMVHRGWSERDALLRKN
Experiment: EMSA; assembles on each arm; MST: PBS pH 7.4 + 0.05% Tween-20, 22 C; anisotropy: 6.7 mM Tris-HCl pH 8.0, 3.3 nM (so in the source) sodium acetate, 2 mM EDTA, 25 C; EMSA (32P): 50 mM Tris-HCl pH 8.0, 5 mM EDTA, 1 mM DTT, 5% glycerol, 100 ug/ml BSA, on ice; EMSA (Cy520): PBS pH 7.4, room temp
Conditions: protein: recombinant; tags: N-His6; chain copies: 2; label: 5'-32P on strand 1; four-way junction, 11 bp homologous core

B1: Holliday junction HJ (structured_DNA)
DNA 1: GGCGACGTGATCACCAGATGATTGCTAGGCATGCTTTCCGCAAGAGAAGC
DNA 2: GGCTTCTCTTGCGGAAAGCATGCCTAGCAATCCTGTCAGCTGCATGGAAC
DNA 3: GGTTCCATGCAGCTGACAGGATTGCTAGGCTCAAGGCGAACTGCTAACGG
DNA 4: ACCGTTAGCAGTTCGCCTTGAGCCTAGCAATCATCTGGTGATCACGTCGC
- binding result: binds
